# Reference: patent US8663642B2, “Anti-CD70 antibody-drug conjugates and their use for the treatment and prevention of cancer and immune disorders” (priority 2003, dated 2014)
# B1: 1F6-vcAFP: anti-CD70 mAb 1F6 linked to auristatin phenylalanine phenylenediamine by the valine-citrulline (vc) dipeptide linker (conjugate)
# VH: QIQLVQSGPEVKKPGETVKISCKASGYTFTNYGMNWVKQAPGKGLKWMGWINTYTGEPTYADAFKGRFAFSLETSASTAYLQINNLKNEDTATYFCARDYGDYGMDYWGQGTSVTVSS
# VL: DIVLTQSPASLAVSLGQRATISCRASKSVSTSGYSFMHWYQQKPGQPPKLLIYLASNLESGVPARFSGSGSGTDFTLNIHPVEEEDAATYYCQHSREVPWTFGGGTKLEIKR
# modifications: non-natural residues
# notes: anti-CD70 mAb 1F6 linked to auristatin phenylalanine phenylenediamine by the valine-citrulline (vc) dipeptide linker
# How the values were obtained:
# CD70^− Jurkat cells = assay: 3H-TdR proliferation assay, hematologic lines; type: cell-based, human; details: at concentrations as high as 2 μg/ml
# Protocol: (§1) FIG. 5: Effects of anti-CD70 ADCs on the proliferation of transformed hematologic cell lines. A subset of the CD70^+ cell lines shown in FIG. 4 and the CD70^− Jurkat cell line were tested for their sensitivity toward 1F6 ADCs. Graded doses of the 1F6-vcMMAE, 1F6-vcAFP, or the corresponding non-binding control IgG (IgG) ADCs were added to cells at the initiation of culture. Cells were exposed to the ADCs continuously for a total of 96 hours. Proliferation was determined by pulsing with ^3H-TdR during the last 16 hours of incubation. The upper panels show the response of the WSU-NHL and Jurkat lines. The lower panel summaries the responses by the tested cell lines to 1F6-vcMMAE and 1F6-vcAFP in form of IC50s.
# (§2) A subset of the CD70^+ hematologic lines listed in FIG. 4 was tested for sensitivity to the 1F6 ADCs. These lines were seeded at 5,000 cells per well in 96-well plates in quadruplicates in a total of 200 μl of culture medium containing graded doses of the ADCs as indicated in the FIG. 5 and the accompanying figure legend. Proliferation assays were carried out for 96 hours. Tritiated thymidine (^3H-TdR) incorporation during the last 16 hours of incubation was used to assess DNA synthesis. The responses of a CD70^+ B lymphoma cell line WSU-NHL and the CD70^− Jurkat cells are shown in the upper panels of FIG. 5. […] Proliferation inhibitory effects were apparent when the ADCs were used at concentrations higher than 0.005 μg/ml. […] On the other hand, proliferation of the CD70^− Jurkat acute T leukemia cell line was not affected by either 1F6-vcMMAE or 1F6-vcAFP at concentrations as high as 2 μg/ml. […] The responses of other CD70^+ cell lines tested are summarized in the lower panel of FIG. 5. […] Moreover, EBV-LCLs are phenotypically very similar to activated normal B cells.
# WSU-NHL cells = assay: 3H-TdR proliferation assay, hematologic lines; type: cell-based, human; details: 96 hours, 3H-TdR last 16 hours
# Protocol: as §1, §2
# [1] = test system: CD70^+ hematologic cell lines; assay: 3H-TdR proliferation assay, panel of CD70^+ hematologic lines; type: cell-based, human; details: all the responsive cell lines tested
# Protocol: as §1
# A subset of the CD70^+ hematologic lines listed in FIG. 4 was tested for sensitivity to the 1F6 ADCs. These lines were seeded at 5,000 cells per well in 96-well plates in quadruplicates in a total of 200 μl of culture medium containing graded doses of the ADCs as indicated in the FIG. 5 and the accompanying figure legend. Proliferation assays were carried out for 96 hours. Tritiated thymidine (^3H-TdR) incorporation during the last 16 hours of incubation was used to assess DNA synthesis. The responses of a CD70^+ B lymphoma cell line WSU-NHL and the CD70^− Jurkat cells are shown in the upper panels of FIG. 5. […]
# Caki-1 cells [2] = assay: 3H-TdR proliferation assay, RCC lines; type: cell-based, human; details: Caki-1, 3H-TdR incorporation, 96 hours
# 786-O cells [3] = assay: 3H-TdR proliferation assay, RCC lines; type: cell-based, human; details: 3H-TdR incorporation, 96 hours
# 786-O cells [4] = assay: alamarBlue reduction cell viability (cytotoxicity) assay; details: 96 hours
# Protocol: (§3) 786-O or Caki-1 cells were incubated with graded doses of 1F6-vcAFP or the non-binding control IgG-vcAFP. Cells were incubated for a total of 96 hours. ^3H-thymidine incorporation (upper panel) and reduction of alamarBlue (lower panel) were used to determine proliferation and cell viability, respectively. Data points are expressed as percentages of the untreated control. Error bars represent the standard deviations of values obtained from quadruplicate wells.
# (§4) To examine the responses of CD70^+ RCC lines to 1F6 ADCs, cells were seeded between 1,000 to 3,000 cells per well in 100 μl of medium. An additional 100 μl of culture medium containing graded doses of ADCs were added to the wells after cells were allowed to attached overnight. In addition to DNA synthesis, cell viability, as a reflection of the cytotoxic activities of ADCs, was also assayed by the reduction of alamarBlue™ (Biosource International, Camarillo, Calif.). The alamarBlue™ dye was added at a one to four dilution during the last 4 to 24 hours of the incubation. Dye reduction was assessed by fluorescence spectrometry using the excitation and emission wavelengths of 535 nm and 590 nm, respectively. For analysis, the amount of ^3H-TdR incorporated or the extent of alamarBlue™ reduction by the treated cells was compared to that of the untreated control cells.
# Caki-1 cells [5] = assay: as above; details: Caki-1, alamarBlue reduction, 96 hours
# Protocol: as §3, §4
# CD70^+ RCC lines [6] = assay: 3H-TdR proliferation assay, panel of RCC lines; type: cell-based, human; details: CD70^+ RCC lines tested
# CD70^+ RCC lines [7] = details: in 4 of the 7 CD70^+ RCC lines tested
# Protocol: as §4
# CD70^− Hs 835.T cells = assay: 3H-TdR proliferation assay, CD70-negative RCC line; type: cell-based, human; details: CD70^− Hs 835.T, compared with CD70^+ RCC lines
# Caki-1 tumors = assay: Caki-1 subcutaneous xenograft model of RCC; type: in vivo, nude mice; parameters: average tumor size: dose or concentration left out as unconfirmed
# Text: Tumors were initiated in nude mice by implanting tissue tumor blocks (30 mm^3 in size) containing Caki-1 cells. Treatment began when average tumor size within a treatment group was around 100 mm^3. In the upper panel, treatment for the IgG and 1F6 groups began 17 days post implantation (filled arrow), while treatment for the 1F6-vcAFP and IgG-vcAFP groups began 25 days post implantation (open arrow). Indicated doses of either unconjugated mAbs or their ADCs were given for one course on a q4d×4 schedule.
# Using xenografts of the Caki-1 line in nude mice, the […] antitumor activity of 1F6-vcAFP was tested. To establish Caki-1 tumors, nude mice were injected subcutaneously with 5×10^6 Caki-1 cells in 0.2 ml PBS. […] Caki-1-containing tumors were excised from tumor bearing mice and tumor tissue blocks of approximately 30 mm^3 were prepared. Naive nude mice to be used for evaluating in vivo antitumor activity of anti-CD70 ADC were each implanted subcutaneously with one tumor block of 30 mm^3. […] Treatment was initiated when the average tumor size within a group was approximately 100 mm^3 (FIG. 12, arrows).
molecule,measurement,setting,value
B1,effect on proliferation of Jurkat cells,CD70^− Jurkat cells,not affected
same,effect on the proliferation of WSU-NHL cells,WSU-NHL cells,dose-dependent inhibitory effects
same,relative inhibitory activity,[1],more potent inhibitory activity than 1F6-vcMMAE
same,concentration at which maximal proliferation inhibitory effects were achieved,Caki-1 cells [2],lower than 0.1 μg/ml
same,concentration at which maximal proliferation inhibitory effects were achieved,786-O cells [3],lower than 0.1 μg/ml
same,concentration at which maximal cytotoxic effects were achieved,786-O cells [4],lower than 0.1 μg/ml
same,concentration at which maximal cytotoxic effects were achieved,Caki-1 cells [5],lower than 0.1 μg/ml
same,IC50 values for proliferation inhibition,CD70^+ RCC lines [6],2 to 247 ng/mL
same,IC50 values to induce cytotoxicity,CD70^+ RCC lines [7],lower than 20 ng/ml
same,IC50 values for proliferation inhibition,CD70^− Hs 835.T cells,Substantially higher IC50 values
same,average tumor size,"Caki-1 tumors; 1, 56 days after treatment initiation",< 600 mm^3
same,average tumor size,"Caki-1 tumors; 3, 70 days after treatment initiation",under 200 mm^3
same,therapeutic activity / tumor growth,"Caki-1 tumors; Caki-1 xenograft, q4d×4",significantly inhibited tumor growth
